Measured values taken from patent publication US20170326229A1.

Tests used:
Assay in all cases: ELISA, gp120 on plate
[1] = target: CH505 Env w004.54 gp120 (HIV-1)
[2] = target: CH505 Env w020.11 gp120 (HIV-1)
[3] = target: CH505 Env w020.15 gp120 (HIV-1)
[4] = target: CH505 Env w020.25 gp120 (HIV-1)
[5] = target: CH505 Env w030.13 gp120 (HIV-1)
[6] = target: CH505 Env w078.15 gp120 (HIV-1)
[7] = target: CH505 transmitted/founder (TF) Env gp120 (HIV-1)
[8] = target: CH505 Env w053.22 gp120 (HIV-1)
[9] = target: CH505 Env w030.17 gp120 (HIV-1)
[10] = target: CH505 Env w030.20 gp120 (HIV-1)
[11] = target: CH505 Env w030.21 gp120 (HIV-1)
[12] = target: CH505 Env w030.36 gp120 (HIV-1)
[13] = target: CH505 Env w053.15 gp120 (HIV-1)
[14] = target: CH505 Env w053.29 gp120 (HIV-1)
[15] = target: CH505 Env w053.31 gp120 (HIV-1)
[16] = target: CH505 Env w078.17 gp120 (HIV-1)
[17] = target: CH505 Env w078.33 gp120 (HIV-1)
[18] = target: CH505 Env w078.6 gp120 (HIV-1)
[19] = target: CH505 Env w078.9 gp120 (HIV-1)
[20] = target: CH505 Env w100.A13 gp120 (HIV-1)
[21] = target: CH505 Env w100.B2 gp120 (HIV-1)
[22] = target: CH505 Env w100.B4 gp120 (HIV-1)
[23] = target: CH505 Env w136.B10 gp120 (HIV-1)
[24] = target: CH505 Env w136.B2 gp120 (HIV-1)
[25] = target: CH505 Env w136.B23 gp120 (HIV-1)
[26] = target: CH505 Env w136.B5 gp120 (HIV-1)
[27] = target: CH505 Env w160.T4 gp120 (HIV-1)

| Substance | log-transformed AUC [1] [log AUC] | log-transformed AUC [2] [log AUC] | log-transformed AUC [3] [log AUC] | log-transformed AUC [4] [log AUC] | log-transformed AUC [5] [log AUC] | log-transformed AUC [6] [log AUC] | log-transformed AUC [7] [log AUC] | log-transformed AUC [8] [log AUC] | log-transformed AUC [9] [log AUC] | log-transformed AUC [10] [log AUC] | log-transformed AUC [11] [log AUC] | log-transformed AUC [12] [log AUC] | log-transformed AUC [13] [log AUC] | log-transformed AUC [14] [log AUC] | log-transformed AUC [15] [log AUC] | log-transformed AUC [16] [log AUC] | log-transformed AUC [17] [log AUC] | log-transformed AUC [18] [log AUC] | log-transformed AUC [19] [log AUC] | log-transformed AUC [20] [log AUC] | other results |
| --- | --- | --- | --- | --- | --- | --- | --- | --- | --- | --- | --- | --- | --- | --- | --- | --- | --- | --- | --- | --- | --- |
| CH103 lineage intermediate ancestor IA6 (antibody) | 2.9 | 0.8 | 7.8 | 6 | 6.5 | 1 | 9.1 | – | – | – | – | – | – | – | – | – | – | – | – | – | – |
| CH103 lineage intermediate ancestor IA4 (antibody) | 2.8 | 0.8 | 9.1 | 7.3 | 7.4 | 1.3 | 10.1 | 0.2 | – | – | – | – | – | – | – | – | – | – | – | – | – |
| CH103 lineage intermediate ancestor IA7 (antibody) | 2.3 | 0.1 | 8.2 | 6.4 | 4.7 | 0.7 | 9.2 | – | – | – | – | – | – | – | – | – | – | – | – | – | – |
| CH103 lineage intermediate ancestor IA3 (antibody) | 5.1 | 0.8 | 10.2 | 8.6 | 9 | 3 | 11 | 1.1 | – | – | – | – | – | – | – | – | – | – | – | – | – |
| CH105 (CH103 lineage monoclonal antibody) | 8.3 | 3.6 | 10.8 | 8.2 | 10.5 | 10.1 | 11.2 | 9 | 6.7 | 7.1 | 10.6 | 7.5 | 9.4 | 8.5 | 13.5 | 9.5 | 8.9 | 3.8 | 6.6 | 11.4 | log-transformed AUC [21]: 7.5 log AUC; log-transformed AUC [22]: 11.9 log AUC; log-transformed AUC [23]: 8.5 log AUC; log-transformed AUC [24]: 12.4 log AUC; log-transformed AUC [25]: 13.7 log AUC; log-transformed AUC [26]: 10.5 log AUC; log-transformed AUC [27]: 12.2 log AUC |
| CH106 (CH103 lineage monoclonal antibody) | 8.1 | 5.4 | 10.5 | 9.4 | 11.9 | 11 | 11.3 | 9.8 | 8.2 | 7.3 | 10.9 | 8.5 | 10.1 | 9.7 | 13.4 | 8.7 | 9.5 | 6.7 | 8.3 | 12 | log-transformed AUC [21]: 7.8 log AUC; log-transformed AUC [22]: 12.6 log AUC; log-transformed AUC [23]: 9 log AUC; log-transformed AUC [24]: 12.7 log AUC; log-transformed AUC [25]: 13.3 log AUC; log-transformed AUC [26]: 10.9 log AUC; log-transformed AUC [27]: 12.3 log AUC |
| CH103 lineage intermediate ancestor IA1 (antibody) | 6.2 | 1.8 | 9.9 | 8.6 | 10.5 | 10.9 | 10.4 | 8.8 | 5.8 | 5.7 | 11.8 | 6.7 | 9.2 | 8.8 | 13.4 | 9 | 8.2 | 3 | 6.3 | 12.6 | log-transformed AUC [21]: 7.3 log AUC; log-transformed AUC [22]: 13.7 log AUC; log-transformed AUC [23]: 9.2 log AUC; log-transformed AUC [24]: 13.2 log AUC; log-transformed AUC [25]: 14.4 log AUC; log-transformed AUC [26]: 9.5 log AUC; log-transformed AUC [27]: 13.6 log AUC |
| CH103 lineage unmutated common ancestor (UCA) (antibody) | – | – | 1.6 | 0.8 | 0.3 | – | 3.5 | – | – | – | – | – | – | – | – | – | – | – | – | – | – |
| CH104 (CH103 lineage monoclonal antibody) | 8.1 | 2.2 | 10.5 | 8.3 | 11.3 | 10.8 | 10.4 | 9.9 | 7 | 7.5 | 11.3 | 7.8 | 10.4 | 9.8 | 13.7 | 10 | 9 | 4.5 | 6.9 | 12.9 | log-transformed AUC [21]: 6.1 log AUC; log-transformed AUC [22]: 13.1 log AUC; log-transformed AUC [23]: 8.9 log AUC; log-transformed AUC [24]: 13.2 log AUC; log-transformed AUC [25]: 14.2 log AUC; log-transformed AUC [26]: 10.6 log AUC; log-transformed AUC [27]: 12.8 log AUC |
| CH103 lineage intermediate ancestor IA8 (antibody) | 0.5 | 0.9 | 4.2 | 2.4 | 2 | – | 5.5 | – | – | – | – | – | – | – | – | – | – | – | – | – | – |
| CH103 CD4 binding site broadly neutralizing antibody | 9.2 | 9.6 | 11.8 | 10.3 | 12.9 | 10.7 | 12.6 | 11.6 | 9.9 | 9.5 | 12.2 | 9.1 | 11.2 | 10.2 | 13.6 | 11.3 | 11.1 | 9.9 | 8.9 | 12.9 | log-transformed AUC [21]: 3.2 log AUC; log-transformed AUC [22]: 9.7 log AUC; log-transformed AUC [23]: 11.5 log AUC; log-transformed AUC [24]: 10.8 log AUC; log-transformed AUC [25]: 11.8 log AUC; log-transformed AUC [26]: 4.3 log AUC; log-transformed AUC [27]: 9 log AUC |
| CH103 lineage intermediate ancestor IA2 (antibody) | 6.8 | 2.6 | 10.5 | 9 | 11.4 | 11.5 | 10.8 | 9.3 | 7 | 6.3 | 11.5 | 7.3 | 9.5 | 9.2 | 13.3 | 9.9 | 9 | 4.6 | 7.2 | 12.5 | log-transformed AUC [21]: 7.5 log AUC; log-transformed AUC [22]: 13.4 log AUC; log-transformed AUC [23]: 9.7 log AUC; log-transformed AUC [24]: 13.1 log AUC; log-transformed AUC [25]: 14.3 log AUC; log-transformed AUC [26]: 9.9 log AUC; log-transformed AUC [27]: 13.4 log AUC |
